Reference: US20190194319A1 (AbbVie / Abbott, published 2019)

T1: human ASCL1 (Achaete-scute homolog 1) (human, UniProt P50553 1-236)
T1 construct: also called hASCL1; immobilized human ASCL1
T1 sequence: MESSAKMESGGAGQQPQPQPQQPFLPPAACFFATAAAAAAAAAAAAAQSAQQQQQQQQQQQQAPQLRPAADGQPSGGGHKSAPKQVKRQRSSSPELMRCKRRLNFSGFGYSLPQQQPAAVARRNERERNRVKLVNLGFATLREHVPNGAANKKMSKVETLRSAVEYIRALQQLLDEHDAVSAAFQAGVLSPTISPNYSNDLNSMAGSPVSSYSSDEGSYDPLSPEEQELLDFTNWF

T2: hASCL1 expressed in HEK-293T cells (pLMEGPA-hASCL1-NFlag) (human, UniProt P50553 1-236)
T2 construct: also called HEK293T cells transiently transduced with hASCL1; ASCL1 engineered cells
T2 sequence: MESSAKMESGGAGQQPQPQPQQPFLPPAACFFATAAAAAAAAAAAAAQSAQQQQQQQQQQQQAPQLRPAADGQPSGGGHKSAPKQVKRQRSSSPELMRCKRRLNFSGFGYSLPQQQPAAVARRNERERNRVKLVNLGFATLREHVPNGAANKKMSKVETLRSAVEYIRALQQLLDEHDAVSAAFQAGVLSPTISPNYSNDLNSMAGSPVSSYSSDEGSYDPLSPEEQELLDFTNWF


Experiments:
[1] = biological target: T1, human ASCL1 (Achaete-scute homolog 1); test: screening of Example 2 (ELISA) or cells
[2] = biological target: T1, human ASCL1 (Achaete-scute homolog 1); test: ELISA with purified antibody: staining against hASCL1 divided by staining against an irrelevant protein (form of the coated hASCL1 not stated in paragraph 180; the screen it confirms used hASCL1-GST)
Description: A second immunization campaign was conducted similar to the first with the following modifications: 1) 299×10⁶ cells) were fused with non-secreting SP2/0-Ag14 myeloma cells (ATCC #CRL-1581) at a ratio of 1:1 by electro cell fusion using a model BTX Hybrimmune System (BTX Harvard Apparatus). On day 6, after the fusion, the hybridoma cells were not frozen and were sorted on that day. After the 10 day culture, 6×384 clones were screened by ELISA selecting for antibodies positive to hASCL1-GST (glutathione S-transferase) and counter screened against an irrelevant protein tagged with GST. As part of this, ALK phosphatase-labeled goat anti-mouse IgG diluted 1:5000 in PBSA was used instead of HRP-labeled goat anti-mouse IgG diluted 1:10:000. ELISA samples were analyzed at OD405 instead of OD450.
To confirm the results of the ELISA soup screen a similar ELISA was run on purified antibodies from selected clones. The ELISA positive ratio, (defined as ELISA staining against hASCL1 divided by the ELISA staining against an irrelevant protein) was then determined and set forth in FIG. 3 in the column labeled “ELISA positive ratio”.

[3] = biological target: T2, hASCL1 expressed in HEK-293T cells …; test: intracellular flow cytometry (gMFI) on permeabilised HEK293T cells transduced with hASCL1, control cells transduced with GFP only; antibody 10 ug/ml
Description: 1×10⁵ per well of HEK293T cells transiently transduced with hASCL1(as described in Example 1), and HEK293T cells transiently transduced with GFP only were washed with cold PBS and then incubated with a solution of PBS and a Dylight 450 Fixable viability dye for 30 minutes. After incubation, the cells were washed twice with PBS. To permeate the cell walls 100 ul of BD Cytofix/Cytoperm was added to the cells and left to incubate for 20 minutes on ice. Cells were then washed with BD Phosflow perm/wash solution. Purified antibody at a final concentration of 10 ug/ml was then added to the cells in 45 ul of BD Phosflow perm/wash solution, incubated on ice for 30 minutes, and then washed with BD Phosflow perm/wash 2 times. 50 ul of Alexa Fluor 647 conjugated Goat-anti-mouse IgG secondary antibody, was added at 1 ug/ml dissolved in BD Phosflow perm/wash and incubated on ice for 30 minutes, then washed with BD Phosflow perm/wash 3 times. The cells were then resuspended in FACS buffer to be read on BD FACS Canto according to the manufacturer's instructions.
The FlowJo software package (FlowJo LLC) was used to calculate gMFI (geometric Mean Fluorescence Intensity) for each of the anti-ASCL1 antibodies.

binding result [1]	ELISA positive ratio [2]	IC ratio [3]	Binder
binds	–	–	SC72.63 (antibody, V domains shown, Murine monoclonal antibody from a hybridoma; light chain amplified with kappa primers) VH: EVQLLQSGPELVKPGASVKMSCKASGYTLTDYNLHWVKQSHAKSLEWIGYINPYNGVTSYNQRFKGKATLTVNKSSSTAFMEFRSLTSEDSAVYYCVSLYYGDDPFACWGQGTLVTVST VL: DIQMTQSPASLSASVGETVTMTCRASENIYSNLAWYQQKQGKSPQLLVYAATNLADDVPSRFSGSGSGTQFSLKINSLQPEDFGIYYCHHFYGSPLTFGAGTKLELK
binds	–	–	SC72.94 (antibody, V domains shown, Murine monoclonal antibody from a hybridoma; light chain amplified with kappa primers) VH: QVQLQQPGTELVKPGASVKLSCKASAYTFTSLWIHWVKQRPGQGLEWIGDINPSIGDTYYNERFKSKATLTVDKSSSTAYMQLSSLTSEDSAVYYCTTGDSWGQGTTLTVSS VL: DIQMNQSPSSLSASLGDTITITCRASQGISIWLSWYQQKPGNIPKLLIYKASNLHTGVPPSFSGSGSGTDFTLTISSLQPEDIATYYCLQSQSYPWTFGGGTKLEIK
–	13	1.86	SC72.216 (antibody, V domains shown, Murine monoclonal antibody from a hybridoma of the second immunization campaign; light chain amplified with kappa primers) VH: QIQLVQSGPELRKPGETVKISCKASGYTFTNYPMHWVKQAPGKGFKWMGWINTYSGVPSYADDFKGRFAFSLETSASSAYLQINNLKNEDMATYFCARHNYNSYDVFAYWGQGTLVTVSA VL: DIVVTQSPASLAVSLGQRATISCKASQSVDYDGDSYMNWYQQKPGQPPKLLIYGASNLESGIPARFSGSGSGTDFTLNIHPVEEEDAATYYCQQSNEDPYTFGGGTKLEIK
–	14.2	3.69	SC72.165 (antibody, V domains shown, Murine monoclonal antibody from a hybridoma; light chain amplified with kappa primers) VH: QVQLQQPGAELVRPGASVRLSCKASGYSFTSYWINWVKQRPGQGLEWIGNIYPGSSNTNYNEKFKRKATLTVDTSSSTAYMQLSSLTSDDSAVYYCARSESDYWGQGTTLTVSS VL: DIVLTQSPASLAVSPGQRATISCKASQSVGYDGDTYLSWYQQKPGQPPKLLIYGVSILESGIPARFSGSGSGTDFTLNIHPVEEEDAATYYCQQSSEDPYTFGGGTKLEIK
binds	–	–	SC72.181 (antibody, V domains shown, Murine monoclonal antibody from a hybridoma; light chain amplified with kappa primers) VH: QVQLQQPGAEVVKPGASVRLSCKASGYTFTSYWINWVKQRPGQGLEWIGNIYPGSSSTNYNEKFKSKATLTVDTSSSTAYMQLSSLTSDDSAVYYCSRSESDYWGQGTTLTVSS VL: DIVLTQSPASLAVSLGQRATISCKASQSVDDDGGTYMSWYQQKPGQPPKLLIYGVFILESGIPARFSGSGSGTDFTLNIHPVEEEDAATYYCQQSNEDPYTFGGGTKLEIK
binds	–	–	SC72.91 (antibody, V domains shown, Murine monoclonal antibody from a hybridoma; light chain amplified with kappa primers) VH: QVQLQQSGPEVVKPGASVKLSCKASGYTFTTYDINWVKQRPGQGLEWIGWIYFRDGTNKYNEKFKGKATLTVDTSSSTAYMELHSLTSEDSAVYFCASVYDGYYVSGFDIMDYWGQGTSVTVSS VL: DVVLTQTPLSLPVSLGDQASIYCRSSQSIVHSNGNTYFEWYLQKPGQSPKLLIYKVSNRLSGVPDRFSGSGSGTDFTLKISRVEAVDLGIYYCFQASHVPFTFGAGTKLELK
binds	–	–	SC72.28 (antibody, V domains shown, Murine monoclonal antibody from a hybridoma; light chain amplified with kappa primers) VH: DVQLQQSGAELVRPGALVKLSCKASGFNIKDYLIHWVKQRPEQGLEWIGCIDPENGNTIYDPRFQGKAKITSDTSSTTAYLRLTSLTSEDTAVYYCGRGGLDYWGQGTTLTVSS VL: not shown
binds	–	–	SC72.96 (antibody, V domains shown, Murine monoclonal antibody from a hybridoma; light chain amplified with kappa primers) VH: EVQLQQSGPELVKPGASVKMSCKASGYTLTAYNIHWVKQSHGKSLEWIGFINPHSGGTTYNEKFKGKATLTVNKSSSTANMELRSLTSEDSAVYYCASIYYYGSSYFDHWGQGTTLTVSS VL: DIQMTQSPASLSASVGETVTMTCRASENIHSNLVWYQQKQGKSPQLLVYAATNLADGVPSRFSGSGSGSQFSLKIDSLQPEDFGSYLCQHFYGTPRTFGGGTKLEIK
binds	–	–	SC72.52 (antibody, V domains shown, Murine monoclonal antibody from a hybridoma; light chain amplified with kappa primers) VH: QVQLQQPGSVLVRPGASVKLSCKASGYTFTSYWMHWVKQRPGQGLEWIGEIYPNSGRTNYNEKFKGKATLTVDTSSSTAYVDLSSLTSEDSAVYYCHYYDDNYGYWGQGTTLTVSS VL: DIVITQDELSNPVTSGESVSISCRSSKSLLYKDGKTYLNWFLQRPGQSPQLLIYLMSTRASGVSDRFSGSGSGTDFTLEISRVKAEDVGVYYCQQFVEYPLTFGAGTKLELK
binds	–	–	SC72.93 (antibody, V domains shown, Murine monoclonal antibody from a hybridoma; same VL as SC72.2; light chain amplified with kappa primers) VH: QVQLQQSGAELVRPGASVTLSCKASGYIFIDYEMHWVKQTPVHGLEWIGSIDPETGDTVYNQKFKGKATLTADKSSSTAYMELRSLTSEDSAVYYCSRGGLDYWGQGTTLTVSS VL: not shown
–	11.7	0.67	SC72.201 (antibody, V domains shown, Murine monoclonal antibody from a hybridoma of the second immunization campaign; light chain amplified with kappa primers) VH: EVNLEESGGGLVQPGGSMKLSCVASGFTFSNYWMNWVRQSPEKGLEWVAQIRSKSDNYATHYAESVKGRFTISRDDSKSSVYLQMNNLRSEDTGIYYCRTGPDVWGTGTTVTVSS VL: DIQMTQSPASLSVSVGETVTITCRASENIYSSLAWYQQKQGNSPQLLVYAATKLADGVPSRFSGSGSGTQYSLKINSLQSEDFGSYYCQHFWGTTWTFGGGTKLEIK
binds	–	–	SC72.132 (antibody, V domains shown, Murine monoclonal antibody from a hybridoma; light chain amplified with kappa primers) VH: EVKLVESEGGLVQPGSSMKLSCTASGFTFSDYYMAWVRQVPEKGLEWVATIDYDGSNTYYLDSLKSRFIISRDNAKNILYLQMSSLKSEDTATYYCARDGGYDEDYFDYWGQGTTLTVSS VL: DIVMSQSPSSLAVSVGEKVTLSCKSSQTLLYSSNQQNYLAWYQQKPGQSPKLLIYWASTRESGVPDRFTGSGSGTDFTLTISSVKAEDLAVYYCHQYYTYPFTFGSGTKLEIK
binds	–	–	SC72.76 (antibody, V domains shown, Murine monoclonal antibody from a hybridoma; light chain amplified with kappa primers) VH: QVQLKESGPGLVAPSQSLSITCTVSDFSLTNYAVHWVRQSPGKGLEWLGVIWSDGNTDYNAPFISRLSISKDNSKSQVFFKMNSLQADDTAIYYCASYGDSAYWGQGTLVTVSA VL: DIVLTQSPASLTVSLGQRATISCRASQSVRTSNYSYMHWYQQKPGQPPKLLIKYASNLESGVPARFSGSGSGTDFTLNIHPVEEEDTATYYCQHHWEIPFTFGGGTKLEIK
